Results published in paper PMC2913173 (Journal of molecular biology, 2009).

Assays:
Assay in all cases: flow cytometry on cells
[1] = target: T1, Bak(72–89) R88A–eCPX fusion displayed on E. coli (UniProt Q16611 72-89, R88A)
T1 chain (looked up): GQVGRQLAIIGDDINRAY

[2] = target: T2, Bak(72–89)–eCPX fusion displayed on E. coli (UniProt Q16611 72-89)
T2 chain (looked up): GQVGRQLAIIGDDINRRY

[3] = target: T3, Bak(72–89) R88Q–eCPX fusion displayed on E. coli (UniProt Q16611 72-89, R88Q)
T3 chain (looked up): GQVGRQLAIIGDDINRQY

[4] = target: T4, Bak(72–89) Y89A–eCPX fusion displayed on E. coli (UniProt Q16611 72-89, Y89A)
T4 chain (looked up): GQVGRQLAIIGDDINRRA

[5] = target: T5, Bak(72–89) R88E–eCPX fusion displayed on E. coli (UniProt Q16611 72-89, R88E)
T5 chain (looked up): GQVGRQLAIIGDDINREY

[6] = target: T6, Bak(72–88)–eCPX fusion displayed on E. coli (UniProt Q16611 72-88)
T6 chain (looked up): GQVGRQLAIIGDDINRR

[7] = target: T7, Bak(72–87)–eCPX fusion displayed on E. coli (UniProt Q16611 72-87)
T7 chain (looked up): GQVGRQLAIIGDDINR

B1: biotinylated Bcl-2 chimera (isoform 2): residues 1–34 of Bcl-2, residues 35–50 of Bcl-xL, residues 92–207 of Bcl-2 (other, UniProt P10415 1-34, looked up)
chain: MAHAGRTGYDNREIVMKYIHYKLSQRGYEWDAGDTEAPEGTESEMETPSAVVHLTLRQAGDDFSRRYRRDFAEMSSQLHLTPFTARGRFATVVEELFRDGVNWGRIVAFFEFGGVMCVESVNREMSPLVDNIALWMTEYLNRHLHTWIQDNGGWDAFVELYGPSMR
modifications: biotin on the lysine of the biotin acceptor peptide (…)
[1]
  median fluorescence: 24.6 AU
[2]
  median fluorescence: 19.1 AU
[3]
  median fluorescence: 11.1 AU
[4]
  median fluorescence: 11.9 AU
[5]
  median fluorescence: 8.4 AU
[6]
  median fluorescence: 8.3 AU
[7]
  median fluorescence: 2.1 AU
